Measurements published in US20240165140A1, “MEDICATION FOR INHIBITING DNA-PKCS” (TSINGHUA UNIVERSITY, priority 2017, published 2024).

Tested on: MDA-MB-435S cells
Experiment: CCK8 cell activity, melanoma MDA-MB-435S
Type: cell-based
Settings: MDA-MB-435S (P53 mutant); operation process as in Example 5
Procedure: First, a lentivirus kit (purchased from Shanghai Genepharma) was used to construct a P53 stably overexpressing H1299 cell line (H1299-P53) and a P53 stably knockdown A549 cell line […]. The P53 sequence targeted by the shRNA used to knock down P53 in A549 cells was 5′-[…]-3′ (SEQ ID NO: 4). Virus transfection and the construction of stable cell lines were performed according to the kit instructions. […] After treatment for 12 hours, the drug-containing medium was replaced with a normal medium and the cells were further cultured for 72 hours. Cell activity was measured according to the instructions of the CCK8 kit (Dojindo, Tokyo, Japan).
This example used two cell lines of another tumor type (melanoma), the MDA-MB-435S (P53 mutant) and A375 (P53 wild type) cell lines, to verify the regulatory function of Endostatin on the chemotherapeutic sensitivity of other types of tumor cells with different P53 status. Operation process was the same as in Example 5.

B1: Endostatin: recombinant natural human endostatin expressed by E. coli, from Protgen, SEQ ID NO: 2 (protein)
chain: MHSHRDFQPVLHLVALNSPLSGGMRGIRGADFQCFQQARAVGLAGTFRAFLSSRLQDLYSIVRRADRAAVPIVNLKDELLFPSWEALFSGSEGPLKPGARIFSFDGKDVLRHPTWPQKSVWHGSDPNGRRLTESYCETWRTEAPSATGQASSLLGGRLLGQSAASCHHAYIVLCIENSFMTASK
modifications: The amino acid sequence of natural human endostatin
In the case of B1, the “Effect on toxicity of Etoposide to tumor cells (cell activity)” value is reported as “could enhance the toxicity of Etoposide to tumor cells”.
